Test results taken from patent US20240026407A1, “MODIFICATION OF SAPONINS” (GLAXOSMITHKLINE BIOLOGICALS SA, priority 2020, published 2024).

Assays:
Type in all cases: biochemical, Quillaja saponaria
[1] = Experiment 6-1: screening of rhamnosidases for derhamnosylation of saponins in treated bark extract (2%), QS-17 2296 to QS-18 2150 (PAR %); conditions: TBE 2%, pH 7.5, 30 degC, 18 h; TIC peak area ratio percent of rhamnosylated starting saponin to derhamnosylated product, LCMS/MS; negative controls 4.876, 5.225
[2] = Experiment 6-1: screening of rhamnosidases for derhamnosylation of saponins in treated bark extract (2%), desglucosyl-QS-17 2134 to QS-21 1988 (PAR %); conditions: TBE 2%, pH 7.5, 30 degC, 18 h; TIC peak area ratio percent, LCMS/MS; negative controls 2.719, 2.158
[3] = Experiment 6-1: screening of rhamnosidases for derhamnosylation of saponins in treated bark extract (2%), QS-17 2310 to QS-18 2164 (PAR %); conditions: TBE 2%, pH 7.5, 30 degC, 18 h; TIC peak area ratio percent, LCMS/MS; negative controls 3.061, 2.429
[4] = Experiment 6-1: specificity of rhamnosidases towards other rhamnose residues (C3 saccharide rhamnose, C28 saccharide rhamnose); conditions: TBE 2%, pH 7.5, 30 degC, 18 h; LCMS/MS; negative controls 0.18, 0.17

Row | Molecule | QS-17 (PAR %) [1] [%] | Peak75 (PAR %) [2] [%] | Peak57 (PAR %) [3] [%] | ratio PP/QS-21 [4]
1 | 1059 (protein, listed as Solibacter usitatus) MVEMSVPVLRSSAFIALLAGLALGADPANITELQRGFQHPPDEARIMVRWWWFGPAVTKPELEREMRLMKQGGIGGFEVQPTYALELDNAEKGIKNLPYMSPEFLEALRFTGEKAKELGLRMDLTLGSGWPFGGPHIPVELASPRLRVARAAVTAGAAAINVPELQPSEKLIAAFLGNQELEAAGSQSFRLPPSAAGQVTFFISSHTRQTVKRPAVGAEGWVLNHYDRAAIEQHFKSVGEPMLNALAKTPPAAIFSDSLEVYNSDWTGDFLAQFAKRRGYDLKPYLPALAGDIGEKTGAIRNDWGQTLSELAEENYLKPLTAWAHQHNTKFRSQTYGIPPVTLSSYSLVDLPEGEGTQWRHFSSTRWATSASHLYNRPVTSSETWTWLHSPVFRATPLDMKAEADLHFLQGVNQLVAHGWPYSPPSVGEPGWRFYAAAVFNEHNPWWIVMPDIATYMQRVSWMLRQGKPVNDVAVYLPTHDAFAGFTLGRDSVNQAMEGILGPKLVPTILDAGYGFDFIDDGAIAAGGVPHKILIVPGAERIPLATYQKIEEYRRDGGKVFFTKRLPSLAPGLREEGDTAKIRELSAKHVVTGDDGLAGALHDALPADFTAPPEIGVVHRKLAYADVYFLANTSNHAVKGAAKFRASGMPAAWWDPVTGKSSKADLNLELAPYESRVLVFSRAGGAVMGQAMSLPEVDISSDWTITFPGEQPVKMATLRPWTDEENRKFYSGTATYERKVTATPAMAAAHVFLNFGEGTVADPASERRAPSGMRAWLESPVREAAQVFVNGKPAGAVWKAPYEVDVTGLLQAGENSIRVVVANLALNVLAKGPLPDYKELTAKYGEKFQAQDMQSVRALPGGMMGPVKLVSK | 4.613 | 2.534 | 2.956 | 0.16
2 | 1064 (protein, listed as Lachnospiraceae bacterium) MEIYNLKINGMVNPIGFEYKEIICSWKVRKTEDKQQKKARISISADQEFHEIVFQIEGEELDSTGTLADFKIKPYTTYYWKVYVEGENGEYGTSETAFFETAKMCHKWKADWIGTDKEDTFHPVFQKKFYLRDGIKKARLYCCGLGVYEGYINGKKAGNDYLAPFINDYKDNLQYQTYDITDLLFQQKENKIEFLLGKGWYIGKFGLDGCEKIFGDEMMLIAEIRVEYFDGRIEVICTDDNWKYKGSDIEDSGIYFGEKINRQLWDDRQNLWKQAVKKKQKTPLKERYSLPLTVKEDIVPVKIIHTPIGETVLDVGQNMVGYMEFFADFPKGTRIKIECGEILQHGNFCHDNYTIAESTFEYISDGRKETVRPHFTYMGFRYLRVTGWPNEIKLGDIKCRVIYSDLQRTGFCKTQNSMLNQLYENCIWSQKSNFVDMPTDCPQRGERLGWTGDAQVFAATACYNMDTRAFYRKYLRDIRSHQLRKNGAIPNFIPDLGTFSEACSIWGDAATILPYQIYQSYGCAEEIRSYYTTMKDWVEYMVSMDESQGRHYKFQPGFQFGDWLALDGITEQSLKGSTDDNYIGCCYYYHSVKITSEIAQVLGYTEDAQRYQELSGKIRKAILNEYFTPKGRLSVDTQTAYIIALKFGLYNNKNVLIQQFKERLTRDCYKIKCGFAGTPLLCSVLGENGMEDIAYRILLNKDYPGWLYCVNLGATTVWERWNSVLSDGMLSGTGMNSLNHYAYGSVVQYFYEYIAGIRPKRPGFKEAFIEPKPDIRIQGVMCSYDSAMGVYKSEWKIQENGLICIHIEIPFNCTADVLLPEYSSNGLTYSDNVNGEMISENGKLQLCSGKYDFAYFPKNDYRHVYKPESILGDLREDKEALEILEKNIPVLYEIIQSNDIENMLITLQEFDTLHFMGIDPEIADETRKKIYNLNYYGK | 4.625 | 2.476 | 3.009 | 0.18
3 | 1019 (protein, Bacteroides thetaiotaomicron) MNKKQLILLCMLAAGGSIQAQQWPDAPAEARPGTRWWWLGSAVDEKNLTYNLEEYARAGMGAVEITPIYGVQGNDANDIQFLSPRWMEVLKHTQAEGKRTGIEIDMNTGTGWPFGGPEVSIEDAASKAIFQTYDIEGGQEIVQDINVTDKKQQPYSVLSRVMAYDENGRCINLTSHVRKDKLVWKAPAGKWKVIALYNSKTRQKVKRAAPGGEGYVMNHLSKTAVKNYLSRFNRAFKSSKTSYPHTFFNDSYEVYQADWTEDFLDQFARRRGYKLEEHFPEFLDENRPEISRRIVSDYRETISDLLLENFTRQWTDWAHKNGSITRNQAHGSPANLIDVYAAVDIPECEGFGLSQFHIKGLRQDSLTKKNDSDLSMLKYASSAAHIAGKPYTSTETFTWLTEHFRTSLSQCKPDMDLMFVSGINHMFFHGTPYSPKEAEWPGWLFYASINMNPTNSIWHDAPSFFDYITRCQSFLQMGKPDNDFLIYLPVYDMWDEQPGRLLLFSIHHMAKLAPKFIDAIHRINNSGYDGDYISDNFIRSTRFKDGQLITSGGTGYKALVVPAAHLMPNDVLAHLLKLAQQGATIVFLENYPTDVPGYGQLEQKRKTYQQTLQKLPSVSFSETTVTPVGKGKIITGTDYARTLASCNIPQEEMKTKFGLQAIRRVNDSGHHYFISSLQDKGVNDWVTLGTKAKAAALFNPMTGECGEAKVRQAGEQTQVYLQLKSGESVILQTYQQPLQAARPWKYIQEQPFSLSLDHGWKLHFAESEPKIKGTFDIDRPCSWTGIDHPAAKINMGSGVYSLDIELPALQADDWVLDLGDVRESARVRINGQEAGCAWAVPYQLRVGHLLKSGKNHIEIEVTNLPANRISELDRQGVQWRKFKEINIVDLNYRPANYGHWAPMPSGLNSEVRLIPVDYLSFKTH | 4.626 | 2.982 | 2.390 | 0.15
4 | 1047 (protein, listed as Brachybacterium faecium) MSSHTAQHVLDALTHPDPAARPMMRWWWFGPDMDRAEIDRELRAMAAAGLGGAEIALVYPLRPGAPDYLGDEALGHVRHAAERARELGLRLDVTLGSGWSYGGPHIGPEQAARRLRWERRDLGPQPLSWPLTPSWPGDELVSVHLGEGLPPSGWTRLDPVGERLEIPAGRGPRTVLLAWSEVTGQQVKRSAAGAEGPVVDHLSATAVRHHLDVVGGALLSAVPAHLLGSVFSDSLEVYDAGWTAALPEQFRQRRGYDLLPVLHLLEVDAPGAEQVREDYGLTLSELVEEGFVGTCRAWAEEHGVRFRLQGYGQPPITLSAQRGAHLIEGEGAGWTALTQSRWASSAAHLDRREVVSSEVWTWVRSPAFRAAPLDLLGEAHEHLLLGITHFVGHGWPYTAPDAPGLGWTFYAAGALDDRNAWWPAMPELTAHLTRLCAALRLGAPGAEVALYLPYADVRAARGRGHDLWAACRAHIGEQLPAAIRRAGYDLDLLDDDALAALDPAAYPVVVLPRVSRLPAETRRWLDRVRAAGGSVLAVDSPAYPAGQQLSLPEEDGDDARLRDHATLAMVGARGGSDAEGEEGADGEGADGEAAGGKNPLAAALRGAHTPPLLLSGDGGEVGTVHRRLADGDLHLLAHTGPRRREVEVTPRDPRRALALHDPAEPGLRPLPSTGARLVLHPYQAVLLLATDQPLPAPDGAAPATDAAHGPAQTGTAEPEPIALDGPWTASRPGEAPRAVTLPHLLTGQDAADLRPLLLETTVTLDEDTARGPLVLDLGPGRAVPHTGEGSGYRALLEPPVREIAVLEVDGEELGVLWRPPYRIALTGRLRAGTSRLRLRIHGTTAAAAALPENAEAAAGQVAAAHETYGERFQPQELERMLDGVATGLASVPVLRRAGG | 4.669 | 2.456 | 3.332 | 0.17
